Measured values taken from patent US20160304621A1.
pKd: −log10 of the molar value.

Key:
[1] = target: recombinant human HER2 protein HER2-ECD with His-tag (human) (UniProt P04626); test: ELISA on coated HER2-ECD, 11-point dilution from 1000 ng/ml
[2] = target: recombinant human HER2 protein HER2-ECD with His-tag (human) (UniProt P04626); test: ELISA on coated HER2-ECD, average of 3 independent assays, single site fit

Sequence of RC48-vc-MMAF (VH): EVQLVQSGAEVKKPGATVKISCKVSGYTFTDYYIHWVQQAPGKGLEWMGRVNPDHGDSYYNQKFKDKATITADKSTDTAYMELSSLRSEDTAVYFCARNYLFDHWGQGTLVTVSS
Sequence of RC48-vc-MMAF (VL): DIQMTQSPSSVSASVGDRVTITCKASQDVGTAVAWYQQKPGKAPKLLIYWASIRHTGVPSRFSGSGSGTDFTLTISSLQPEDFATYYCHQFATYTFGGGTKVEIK
Sequence of RC48-vc-MMAE (VH): as the sequence (VH) above
Sequence of RC48-vc-MMAE (VL): as the sequence (VL) above
Sequence of humanized anti-HER2 antibody RC48 (VH): as the sequence (VH) above
Sequence of humanized anti-HER2 antibody RC48 (VL): as the sequence (VL) above

RC48-vc-MMAF
Affinity [1]: 3.35 ng/mL | Molar equivalent [1]: 13.5 pmol/L

humanized anti-HER2 antibody RC48
pKd [2]: 10.36

human-murine chimeric antibody cRC48
pKd [2]: 10.11

RC48-vc-MMAE
Affinity [1]: 2.24 ng/mL | Molar equivalent [1]: 15.2 pmol/L
